Measurements reported in the nanobody polyreactivity screen of Harvey et al. (2022).

experiment: yeast display, Sf9 membrane polyspecificity reagent, FACS + sequencing; frameworks hold sequencing errors
Method in brief: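 A nanobody's polyreactivity label depends on the gate it was sorted from. Yeast display cells were stained with 10% biotinylated, detergent-solubilized Sf9 membrane reagent for 1 hour at 4 °C, enriched on streptavidin microbeads and sorted by FACS. The low and high (top ~1%) gates were set on anti-HA fluorescence for expression and streptavidin fluorescence for reagent binding.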

Row | Sequence | polyreactivity (PSR sort gate)
1 | QVQLVESGGGLVQAGGSLRLSCAASGFTFYKYAMGWYRQAPGKERELVAGISSRGTRTYYADSVKGRFTISRDNAKNTVYLQMNSLKPEDTAVYDCAADSNTVNYDYWGQGTQVTVSS | high polyreactivity
2 | QVQLVESGGGLVQAGGSLRLSCAASGFTFGGYAMGWYRQAPGKERELVAAITGSGGNTFYADSVKGRFTISRDNAKNTVYLQMNSLKPEDTAVYYCAALAPYIGGVDYDYWGQGTQVTVSS | low polyreactivity
3 | QVQLVESGGGLVQAGGSLRLSCAASGSTFDTNAMGWSRQAPGKERELVAAISASGGSTYYADSVKGRFTISRDNAKNTVYLQMNSLKPEDTAVYYCAKTYSTRWWGNGGDYWGQGTQVTVSS | high polyreactivity
4 | QVQLVESGGGLVQAGGSLRLSCAASGLIFQSYAMGWYRQAPGKERELVAVITWSGTSTYADSVKGRFTISRVNAKNTVYLQMNSLKPEDTAVYYCAASKYGSFTNFGYWGQGTQVTVSS | low polyreactivity
5 | QVQLVESGGGLVQAGGSLRLSCVASGRIFSVYAMGWYRQAPAKERELVAGITSSGGSTYYADSVKGRFTISRDNAKNTVYLQMNSLKPEDTAVYYCAAVSEYYKGYDYWGQGTQVTVSS | high polyreactivity
6 | QVQLVESGGGLVQAGGSLRLTCAASGITFTQNAMGWYRQAPGKERELVAAISRSGTITYYADSVKGRFTISRDHAKNTVYLQMNSLKPEDTAVYYCNKLRPQRSWEYDYWGQGTQVTVSS | high polyreactivity
7 | QVQLVESGGGLVQAGGSLRLTCAASGSTFYPYAMGWYRQAPGKERELVAAISSGGSTYYADSVKGRFTISRDNAKNSVYLQMNSLKPEDTAVYYCAADFYYAYYWGQGTQVTVSS | low polyreactivity
8 | QVQLVESGGGLVQAGGSLRLTCAASGIIFKQNVKGWYRKAPGKESELVAAITSRDGTTYYADSVKGRFTISRDNAKNTVYLQMNSLKPEDTAVYYCATLFKSGSYKYGYWGQGTQVTVSS | high polyreactivity
9 | QFQLVESGGGLVQAGGSLRLSCAASGGTFNQYAMGWYRQAPGKEREFVASISRRGGSTYYADSVKGRFTISRDNAKNTVDLQMNSLKPEDTAVYYCAADAFFRLDYYYWGQGTQVTVSS | high polyreactivity
10 | QVQLVESGGGLVQAGGSLRLSCAASGNTFLRYAMGWYRQAPGKERELVAAISTSGDSTYYADSVKGRFTISRDNAKNTVYLQMNSLKPEDTAVYYCAAAWYIHTIAYGCWGQGTQVTVSS | high polyreactivity
11 | QVQLVESGGGLVQAGGSLRLSCADSGITFFIYAMGWYIQAPGKERELVAAISGRSGSTYYADSVKGRFTISRDNAKNTVYLQMNSLKPEDTAVYYCAAGLTFFSYSLDYWGQGTQVTVSS | low polyreactivity
12 | QVQLVESGGGLVQAGGSLRLICAASGSTFPSYAMGWYRQAPGKERELVAAITWSGDSTYYADSVKGRFTILRDNAKNTVYLQMNSLKPEDTAVYYCAKDGGYPVGVLGGDDMEYWGQGTQVTVSS | low polyreactivity
13 | QVQLVESGGGLVQAGGSLRLSCAASGSTFAANAMGWYRQAPGKERELVAALTRSGGSTYYADSVKGRFTISRDNAKNTVYLQMNSLKPEDTAVYYCASKYHTRGVQHGYWGQGTQVTVSS | low polyreactivity
14 | QVQLVESGGGLVQAGGSLRLSCAASGRLSVFYTMGWYRQAPGKERELVAVSRTSGGRTNYADSVKGRFTISRDNAKNTVYIEMNCLKPEDSGDYYGNAEFTYRWGYWQVYLLDYWGQGTQVTVSS | low polyreactivity
15 | QVQLVESGGGLVQAGGSLRLSCAASGSIFSTYAMGWYRQAPGKERELVAAINRGTSTNYADSVKGRFTISRDNAKNTVYLQMNSLKPEDTAVYYCAAYYRGRYGPRRSEYWGQGTQVTVSS | high polyreactivity
16 | QVQLVESGGGLVQAGGSLRLRCAASGGTFRYNAMGWYRQAPGKERELVAAISSSGGSTYYADSVKGRFTISRDNAKNTVYLQMNSLKPEDTAVYYCAAKRRRYVELDYWGQGTQVTVSS | high polyreactivity
17 | QVQLEESGGGLVQAGGSLRLSCAASGRIFHVNAMGWYRPAPGKERELVAAISTSGGRTYYADSVKGRFTISRDNAKNTVYLQMNSLKPEDTAVYYCAKRWPLYVDPTRMDYWGQGTQVTVSS | high polyreactivity
18 | QVQLVETGGGLVHAGVSLRLSCAASGSILSLNAMGWYRQAPGKERELVAVISNCGGSTYYADSVKGRFTISRDNAKNTVYFQMKSLNPEDTAVYYCAVALKYQRRYYYWGQGTQVTVSS | high polyreactivity
19 | QVQLVESGGGLVQAGGSLRLSCAASGITFIRYAMGWYRQAPGKERELVAVITRSGGRTYYADSVKGRFTISRDNAKNTVYLQMNSLKPEDTAVYYCAARAYGYDEYEYWGQGTQVTVSS | high polyreactivity
20 | QVQLVESGGGLVQAGGSLRLSCAASGSIFAPNAMGWYRQAPGKEREFVAGITQSGTSTYADSVKGRFTISRDNAKNTVYLQMNSLKPEDTAVYYCAAEYYYGYWYGYIISYDYWGQGTQVTVSS | high polyreactivity
21 | QVQLLESGGGLVQAGGSLRLSCAASGNTLRYNVMGWYRQAPGKERELFAAISGGGSTSYADSVKGRFTISRDNAKNTVYLQMNSLKPEDTAVYYCAKRSFVGGRGRDSDYRGQGTQVTVSS | low polyreactivity
22 | QVQLVESGGGLVQAGGSLRLSCAASGSTFASNTMGWYRQAPGKERELVAAITQSGGTTYYADSVKGRFTISRDNAKNTVYLQMNSLKPEDTAVYYCAADATFIIRYLSRSDYWGQGTQVTVSS | low polyreactivity

Row | Sequence | polyreactivity (PSR sort gate)
23 | QVQLVESGGGLVQAGGSLRLSCADSGYTFGTYAMGWYIKAPGKERELVAAISNSGGSTYYADSVKGRFTISRDNAKNTVYLQMNSLKPEDTAVYYFNTDGLVRNGPFYSWGLGTQVTVSS | low polyreactivity
24 | QVQLVESGGGLVHAGGSLRLSSAASGRIFWYYALGWYRQPPGKERELVASIRGSGGSTYADSVKGRFTVSRENAKNTVYLPMNSLKPEDTAVYYCAASGRQRGHPMYYWRQGTQVTVSS | high polyreactivity
25 | QDQLVESGGGLVQAGGSLRLSCAASGYTFFFYVMGWSRQAAGKERELVAAITFSVGSTYYADSVKRRFTISRDNAKNTVYLQMNSLKPEDTAVYYCAARGALYSHSYGSARYYYWGQGTQVTVSS | high polyreactivity
26 | QVQLVESGGGLVQAGGSLRLSCAASGFIFDEYTMGWYRQAPGKERELVAAITSSGGTDYADSVKGRFTISRDNAKNTVYLQMNSLKPEDTAVYYCNTEDYYRDYDYWGQGTQVTVSS | low polyreactivity
27 | QVQLVESGGGLVQAGGSLRLSCAASGRTFVGNTMGWYRQAPGKERELVAAISSGGRTYYADSVKGRFTISRDNAKNTVYLQMNSLKPEDTAVYYCAARRRGKVVPTSQFDYWGQGTQVTVSS | high polyreactivity
28 | QVQLVESGGGLVQAGGSLRLSCAASGSIFFLYAMGWYRQAPGKERELVAAISRDGRTNYADSVKGRFTISRDNAKNTVYLQMNSLKPEDTAVYYCAKDGNHPGAVGYGYWGQGTQVTVSS | low polyreactivity
29 | QVQLGESGGGLVQAGGSLRLSCAASGSILTPYSMGWYRQAPGKERELDAAITFRGGSTYYADSVKGRFTISRDNAKNTVYLQMNSLKPEDTAVYYCAAGWYWSYWDPYDYWGQGTQVTVSS | high polyreactivity
30 | QVQLVESGGGLVQAGGSLRLSCAASGRIFAYYAMGWYRQAPGKERELVATINYSGTSTYYADSVKGRFTISRDNAKNTVYLQMNSLKPEDTAFYYCAADLTSRLLWYHIERFDYWGQGTQVTVSS | high polyreactivity
31 | QVQLVESVGGLVQAGGSLRLSCAASGRTFMYNAMGWYRQAPGKERELVAAISWSGGSTYYADSVKGRFTISRDNAKNTVYFLMNSLKPEDTAVYYCAATGRRSGFYFWGQGTQVTVSS | high polyreactivity
32 | QVQLVESGGGLVQAGGSLRLSCAASGNSFYSYAMGRYRQAPGKERELVAAITIDGSTTYADSVKGRFTISRDNAKNTVYLQMNSLKPEDTAVSYCNADGFTSDPYDSDDWGQGTLVTVSS | low polyreactivity
33 | QVQLVESGGGLVQAGGSLRLSCAASGSIFWLYAMGWYRQAPGKERELVAAMSWSGTSTNYADSVKGRFTISRDIAKNTVYLQMNRLKPEDTAVYYCAKRWNNQKLFGYEEEYDYWGQGTQVTGSS | low polyreactivity
34 | QVQLVESGGGLVQAGGSLRLSCAASGSIFRRYTMGWYRQAPGKERELVAAISRVGNTNYADSVKGRFTISRDNAKNTVYLQMNSLKPEDTAVYYCAARAIGYRYTPGLNYWGQGTQVTVSS | high polyreactivity
35 | QVHLVESGGGLVQAGGSLRLSCAASGRIFGYNAMGWYRQAPGKERELVAAITGSRGSTYYADSVKGRFTFSRDTAKNTVYLQLNSLKPEDTAVYYCNAPGNHWGDWGHGTQVTVSS | low polyreactivity
36 | QVQLVESGGGLVQAGGSLRLSCAASGSTFIIYAMGWYRQAPGKERELVAAISWSGGSTYYADSVKGRFTISRDNAKNTVYLQMNSLKPEDTAVYYCNAARYYTPWRTWYDYWGQGTQVTVSS | high polyreactivity
37 | QVQLVESGGGLVQAGGSLRLRCGASGFIFDQYAMGWYRQAPGKERELVAAITYSGGGTYYADSVKGRFTISRDNAKNTVYLQMNSLKPEDTAVYYCADLFGYSLYDAQYDYWGQGTQVTVSS | low polyreactivity
38 | QVQIVESGRGLVQAGGSLRLSCAASGSIFHPKAMGWYRQAPGKERELVAAITSGGGSTYYADSVKVRYTISRDNAKNTVYLQMNSLKPEDTAVYYCNKVFVLPYKFVAWFDYWGQGTQVTVSS | low polyreactivity
39 | QVQLVESGGGLVQAGGSLRLSCAASGSIFIFNAMGWYRQAPGKEREFVARIRRDSSTYYADSVKGRFTISRDNAKNTVYLQMNSLKPEDTAVYYCADKRVYRRVELNSWGQGTQVTVSS | low polyreactivity
40 | QVQLVESGGGLVQAGGSLRLSCAASGYIYQRNAMGWYRQAPGKERELVARINYRGGSFYADSVKGRCTISRDNAKNTGYLQMNSLKPEDTAVYYCAARTSGDMYSWGQGTQVTVSS | high polyreactivity
41 | QVQLVESGGGLVQAGGSLRLSSAASGFTYYFYAMGWYRQAPGKERELVAGISTSGTSTYYADSVKGRFTISRDNAKNTVYFQMNRLKPEDTAVSYCAKRGDAIVPTSSKGNYWGQGTQVTVSS | low polyreactivity
42 | QVQLVQSGGGLVQAGGSLRLSCAASGSTIVTNAMGWYRQAPGKERELVAANTSVGSTYYADSVKGRFTISRDNAKNTVYLQMNSLKPEDTAVYYCNVVYRDQYNYWGQGTQVTVSS | low polyreactivity
43 | QVQLVESGGGLVQAGGSLRLSCAASGSIFTRNAMGWYRQAPGKERELVAAITSGGRTYYADSVKGRFTISRDNAKNTVYLQMNSLKPEDTAVYYCNAYAWGWYDYWGQGTQVTVSS | high polyreactivity
